In the PETadex activity labels (doi:10.3390/molecules28083528):
Substitutions are numbered along the chain they refer to.

B1: unnamed (protein)
chain: MAVGSMLLSMAAQAQVVVFEETFSTGLGKFTAAGSVVTSSGAARLDGCYGCTDGSITSTAISTVDFTGLRLSFDRVTSGLDSGEAGIAEFSTNGSTYTAVESIRTASGRVTFNLPTSAENQSGLRLRFRINASLSSETYTVDNIRLEGTSGSGGGTTNPFEKGPDPTKTMLEASTGPFTYTTTTVSSTTASGYRQGTIYHCTNVTGPFAAVAVVPGYLASQSSINWWGPRLASHGFVVITIDTNSTSDQPPSRATQLMAALNQLKTFSNTSSHPIYRKVDPNRLGVMGWSMGGGGTLIAARDNPTLKAAIPFAPWNSSTNFSTVSVPTLIIACESDSTAPVNSHASPFYNSLPSTTKKAYLEMNNGSHSCANSGNSNAGLIGKYGVSWMKCFMDNDTRFSPYLCGAPHQADLSLTAIDEYRENCPY
B2: unnamed (protein)
chain: B1 chain with C201P, C391R
B3: unnamed (protein)
chain: B1 chain with C201P, N364C, C391R, D411C

These proteins were tested on BHET (assay: Proxy for plastic degradation [Released monomer concentration (HPLC/LC-MS) (TPA+MHET)]). Conditions: pH 7; 30 °C.

| Protein | Proxy for plastic degradation |
| --- | --- |
| B1 | 19.1 µM |
| B3 | 28.8 µM |

Same assay, conditions: pH 7; 40 °C

| Protein | Proxy for plastic degradation |
| --- | --- |
| B1 | 19.5 µM |
| B3 | 31.2 µM |

Same assay, conditions: pH 7; 50 °C

| Protein | Proxy for plastic degradation |
| --- | --- |
| B1 | 20.2 µM |
| B3 | 37.6 µM |

Same assay, conditions: pH 9; 30 °C

| Protein | Proxy for plastic degradation |
| --- | --- |
| B1 | 19.6 µM |
| B3 | 28.9 µM |

Same assay, conditions: pH 9; 40 °C

| Protein | Proxy for plastic degradation |
| --- | --- |
| B1 | 37.1 µM |
| B3 | 43.2 µM |

Same assay, conditions: pH 9; 50 °C

| Protein | Proxy for plastic degradation |
| --- | --- |
| B1 | 55 µM |
| B3 | 66.1 µM |

These proteins were tested on PET (assay: Proxy for plastic degradation [Released monomer concentration (HPLC/LC-MS) (MHET+TPA)]). Conditions: pH 9; 30 °C; 1 h.

| Protein | Proxy for plastic degradation |
| --- | --- |
| B1 | 2.3 µM |
| B3 | 12.1 µM |

Same assay, conditions: pH 9; 30 °C; 2 h

| Protein | Proxy for plastic degradation |
| --- | --- |
| B1 | 3.8 µM |
| B3 | 22.4 µM |

Same assay, conditions: pH 9; 30 °C; 3 h

| Protein | Proxy for plastic degradation |
| --- | --- |
| B1 | 1.6 µM |
| B3 | 33.3 µM |

Same assay, conditions: pH 9; 30 °C; 4 h

| Protein | Proxy for plastic degradation |
| --- | --- |
| B1 | 5.4 µM |
| B3 | 44.1 µM |

Same assay, conditions: pH 9; 30 °C; 5 h

| Protein | Proxy for plastic degradation |
| --- | --- |
| B1 | 4.6 µM |
| B3 | 64.8 µM |

Same assay, conditions: pH 9; 30 °C; 6 h

| Protein | Proxy for plastic degradation |
| --- | --- |
| B1 | 4.9 µM |
| B3 | 72.1 µM |

Same assay, conditions: pH 9; 40 °C; 1 h

| Protein | Proxy for plastic degradation |
| --- | --- |
| B1 | 0.84 µM |
| B3 | 24.3 µM |

Same assay, conditions: pH 9; 40 °C; 2 h

| Protein | Proxy for plastic degradation |
| --- | --- |
| B1 | 3 µM |
| B3 | 43.4 µM |

Same assay, conditions: pH 9; 40 °C; 3 h

| Protein | Proxy for plastic degradation |
| --- | --- |
| B1 | 4.3 µM |
| B3 | 59.5 µM |

Same assay, conditions: pH 9; 40 °C; 4 h

| Protein | Proxy for plastic degradation |
| --- | --- |
| B1 | 8.2 µM |
| B3 | 58 µM |

Same assay, conditions: pH 9; 40 °C; 5 h

| Protein | Proxy for plastic degradation |
| --- | --- |
| B1 | 8 µM |
| B3 | 101 µM |

Same assay, conditions: pH 9; 40 °C; 6 h

| Protein | Proxy for plastic degradation |
| --- | --- |
| B1 | 9.8 µM |
| B3 | 104 µM |

What follows are proteins tested on PET (assay: Proxy for plastic degradation [Released monomer concentration (HPLC/LC-MS) (Not Mentioned)]). Conditions: pH 9; 1 h.

| Protein | Proxy for plastic degradation |
| --- | --- |
| B1 | 2.3 µM |
| B2 | 6 µM |

Same assay, conditions: pH 9; 2 h

| Protein | Proxy for plastic degradation |
| --- | --- |
| B1 | 3.8 µM |
| B2 | 8.6 µM |

Same assay, conditions: pH 9; 3 h

| Protein | Proxy for plastic degradation |
| --- | --- |
| B1 | 1.6 µM |
| B2 | 12.8 µM |

Same assay, conditions: pH 9; 4 h

| Protein | Proxy for plastic degradation |
| --- | --- |
| B1 | 5.4 µM |
| B2 | 11.8 µM |

Same assay, conditions: pH 9; 5 h

| Protein | Proxy for plastic degradation |
| --- | --- |
| B1 | 4.6 µM |
| B2 | 14.5 µM |

Same assay, conditions: pH 9; 6 h

| Protein | Proxy for plastic degradation |
| --- | --- |
| B1 | 4.9 µM |
| B2 | 15 µM |
